The record followed here is US20160017025A1 (RAMOT AT TEL AVIV UNIVERSITY, published 2016).

Ends that are not written are not given here.

Assay [1] addresses T1, APP MAP peptide SW (double Swedish mutation = ISEVNLDA x8) (also: multiple antigenic peptide, 8 copies, core not described).
T1 construct: Eight copies as a MAP; the core is not described
T1 peptide: ISEVNLDA
Kind of assay: BIAcore SPR; mAb captured on Protein G on CM5 chip, MAP peptide as analyte. On the procedure:
(§1) The affinity of new MAbs was assessed by BIAcore. Protein G was immobilized on the CM5 chip as capturing molecule for the different mAbs. Each mAb (ligand) was bound separately to Protein G, and different APP MAP peptides were added separately to the liquid phase (analytes) at different concentrations to test the affinity of the mAb to each peptide. Each mAb was tested for its affinity to the different APP MAP peptides for aa 666-673 WT (wild type=[…], SEQ ID NO:18), IP (immunizing peptide=[…], SEQ ID NO:15), and SW ([…], SEQ ID NO:17). The chip was regenerated by HCl after each cycle of mAb-peptide.

The target of assay [2] is T2, APP MAP peptide IP (immunizing peptide = ISEVKLDA x8), half-Swedish mutation (also: multiple antigenic peptide, 8 copies, core not described).
T2 construct: Eight copies as a MAP; the core is not described; also called MAP1-IP
T2 peptide: ISEVKLDA
Described as above. On the procedure: as §1

Assay [3] deals with T3, APP MAP peptide WT (wild type = ISEVKMDA x8), APP aa 666-673 (also: multiple antigenic peptide, 8 copies, core not described).
T3 construct: Eight copies of the octapeptide as a multiple antigenic peptide; the branching core is not described; also called WT peptide
T3 peptide: ISEVKMDA
The description is as above. How it is done:
as §1

Assay [4] concerns the target T3, APP MAP peptide WT (wild type = …). Kind of assay: BIAcore SPR; reference BBS1. On the procedure: as §1

B1: F5.100 (BBS3) mAb (antibody, mouse IgG1, kappa, V domains shown)
VH: EVQLQQSGPELVKPGASVKISCKASGYTFTDYNMHWVKQSHGKRLEWIGYIYPHNGGTGYNQRFKSKATLTVDKSSSTAYMELRSLTSEDSAVYYCARPGTEAYWGQGTLVTVSA
VL: DIVMTQSQKFMSTSVGDRVSVTCKASQNVGTNVAWYQQKPGQSPKPLIYSASYRYSGVPDRFTGSGSGTDFTLTISNVQSEDLAEYFCQQFNSYPLTFGAGTKLELKR
notes: Mouse hybridoma IgG1; The mature N-termini were found as EVQLQ (H chain; D = residue 21); also called F5.100 mAb; murine BBS3 mAb
For the molecule B1, the Kd worked out at 8.8 nM in assay [1], 3.8 nM in assay [2] and 1.5 nM in assay [3]. In addition, the “fold improvement in affinity over BBS1” value in assay [4] came out at 1000 fold.

B2: F5.87 mAb (antibody, mouse IgG1, kappa, V domains shown)
VH: EVKLEESGGGLVQPGGSMKLSCAASGFTFSNAWMDWVRQSPEKGLEWVAEIRSKANNHATYYGESVKGRFTISRDDSKSSVYLQMNSLRAEDTGIYYCTATVRGGYWGQGTTLTVSS
VL: DIKMTQSPSSMYASLGERVTITCKASQDINSYLSWFQQKPGKSPKTLIYRANRLVDGVPSRFSGSGSGQDYSLTISSLEYEDMGIYYCLQYDEYPYTFGGGTKLEIKR
notes: Mouse hybridoma IgG1
For B2, the results for the Kd in assay [1], in assay [2] and in assay [3] were 1.1 nM, 1.2 nM and 3.3 nM, respectively. Moreover, the “fold improvement in affinity over BBS1” value in assay [4] was 1000 fold.
